Where a chain is given by its changes, count along the chain named.
T1: Cynomolgus MARCO, full length, on cells (cynomolgus, UniProt A0A2K5X0Z2 1-519)
T1 construct: whole, on cells; also called cyno MARCO; CyMARCO
T1 sequence: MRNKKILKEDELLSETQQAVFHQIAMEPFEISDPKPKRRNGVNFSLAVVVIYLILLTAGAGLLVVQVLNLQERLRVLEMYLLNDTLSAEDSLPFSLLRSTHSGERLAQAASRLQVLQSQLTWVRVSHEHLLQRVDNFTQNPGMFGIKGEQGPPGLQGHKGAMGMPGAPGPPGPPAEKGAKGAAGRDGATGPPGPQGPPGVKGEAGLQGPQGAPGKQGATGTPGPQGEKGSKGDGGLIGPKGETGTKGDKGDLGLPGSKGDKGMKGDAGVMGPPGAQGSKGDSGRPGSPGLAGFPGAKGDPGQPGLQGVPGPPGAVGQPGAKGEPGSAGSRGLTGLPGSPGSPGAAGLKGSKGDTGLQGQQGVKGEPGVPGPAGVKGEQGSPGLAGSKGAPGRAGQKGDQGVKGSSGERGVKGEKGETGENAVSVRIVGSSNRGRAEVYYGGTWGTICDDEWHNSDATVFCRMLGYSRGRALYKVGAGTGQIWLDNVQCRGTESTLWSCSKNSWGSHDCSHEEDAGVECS

T2: N-terminally polyhistidine tagged human MARCO ECD (147-520), recombinant (human, UniProt Q9UEW3 147-520)
T2 construct: also called PI-RG-3000; recombinant human MARCO; not shown: N-terminal polyhistidine tag
T2 sequence: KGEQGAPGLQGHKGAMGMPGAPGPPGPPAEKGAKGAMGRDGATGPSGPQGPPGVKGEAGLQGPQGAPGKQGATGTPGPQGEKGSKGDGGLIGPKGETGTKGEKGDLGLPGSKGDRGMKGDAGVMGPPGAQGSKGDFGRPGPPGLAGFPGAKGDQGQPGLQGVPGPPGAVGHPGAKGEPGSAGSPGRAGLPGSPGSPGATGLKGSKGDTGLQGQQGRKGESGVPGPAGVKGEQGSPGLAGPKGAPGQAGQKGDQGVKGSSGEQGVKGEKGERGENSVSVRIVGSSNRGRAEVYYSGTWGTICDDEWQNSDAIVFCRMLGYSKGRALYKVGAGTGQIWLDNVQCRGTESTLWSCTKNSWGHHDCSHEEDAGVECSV

T3: Human Macrophage Receptor with Collagenous Structure (MARCO), full length, on cells (human, UniProt Q9UEW3 1-520)
T3 construct: the cell type is named under assay; also called huMARCO; HuMARCO
T3 sequence: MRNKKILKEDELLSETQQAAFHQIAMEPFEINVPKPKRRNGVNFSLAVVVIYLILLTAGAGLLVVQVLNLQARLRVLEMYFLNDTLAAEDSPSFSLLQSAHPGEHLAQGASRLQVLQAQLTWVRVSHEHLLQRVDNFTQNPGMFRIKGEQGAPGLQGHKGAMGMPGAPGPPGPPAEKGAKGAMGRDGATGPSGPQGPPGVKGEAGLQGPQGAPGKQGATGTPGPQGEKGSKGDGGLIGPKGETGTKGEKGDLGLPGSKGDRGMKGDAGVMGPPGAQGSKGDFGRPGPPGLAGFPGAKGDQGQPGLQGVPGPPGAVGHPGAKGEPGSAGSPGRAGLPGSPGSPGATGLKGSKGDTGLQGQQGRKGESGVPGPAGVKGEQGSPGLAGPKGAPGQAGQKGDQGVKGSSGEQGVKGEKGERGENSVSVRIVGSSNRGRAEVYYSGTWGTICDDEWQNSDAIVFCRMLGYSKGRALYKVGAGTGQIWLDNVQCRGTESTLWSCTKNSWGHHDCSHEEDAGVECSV

T4: recombinant cynomolgus MARCO protein (cynomolgus, UniProt A0A2K5X0Z2 65-519)
T4 construct: Construct not described; also called cyno MARCO; cynoMARCO
T4 sequence: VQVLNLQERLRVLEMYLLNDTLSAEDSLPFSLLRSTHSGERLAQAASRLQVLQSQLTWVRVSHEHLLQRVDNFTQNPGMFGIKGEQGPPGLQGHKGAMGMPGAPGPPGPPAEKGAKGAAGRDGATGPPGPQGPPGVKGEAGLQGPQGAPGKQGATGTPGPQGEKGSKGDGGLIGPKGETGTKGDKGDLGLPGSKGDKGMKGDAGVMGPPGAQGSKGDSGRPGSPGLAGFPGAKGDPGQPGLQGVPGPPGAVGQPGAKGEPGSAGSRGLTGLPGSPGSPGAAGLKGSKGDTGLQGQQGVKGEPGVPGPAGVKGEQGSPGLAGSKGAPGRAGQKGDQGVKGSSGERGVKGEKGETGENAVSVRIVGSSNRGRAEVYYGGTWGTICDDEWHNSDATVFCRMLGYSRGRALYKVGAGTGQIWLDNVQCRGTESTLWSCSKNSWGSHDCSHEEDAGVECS

B1: PI-3019-AB (antibody, mouse IgG2a, kappa)
heavy: EVQLVESGGGLVQPGSSLKLSCVASKFTFSNYGMNWIRQAPKKGLEWIALIYYNSNNKYYADSVKGRFTISRDNSKNTLYLEMNSLRSEDTAMYYCAKSLTGGSDYFDSWGQGVMVTVSSAKTTAPSVYPLAPVCGDTTGSSVTLGCLVKGYFPEPVTLTWNSGSLSSGVHTFPAVLQSDLYTLSSSVTVTSSTWPSQSITCNVAHPASSTKVDKKIEPRGPTIKPCPPCKCPAPNLLGGPSVFIFPPKIKDVLMISLSPIVTCVVVDVSEDDPDVQISWFVNNVEVHTAQTQTHREDYNSTLRVVSALPIQHQDWMSGKEFKCKVNNKDLPAPIERTISKPKGSVRAPQVYVLPPPEEEMTKKQVTLTCMVTDFMPEDIYVEWTNNGKTELNYKNTEPVLDSDGSYFMYSKLRVEKKNWVERNSYSCSVVHEGLHNHHTTKSFSRTPGK
light: DVQMTQSPSYLAASPGESVSISCKASKSIGTFLAWYQEKPEKTNKLLIYSGSTLQSGTPSRFSGSGSGTDFTLTIRNLEPEDFAVYYCQQHDEYPFTFGSGTKLEIKRADAAPTVSIFPPSSEQLTSGGASVVCFLNNFYPKDINVKWKIDGSERQNGVLNSWTDQDSKDSTYSMSSTLTLTKDEYERHNSYTCEATHKTSTSPIVKSFNRNEC
B2: PI-3046-AB (antibody, human IgG4 S228P, kappa)
heavy: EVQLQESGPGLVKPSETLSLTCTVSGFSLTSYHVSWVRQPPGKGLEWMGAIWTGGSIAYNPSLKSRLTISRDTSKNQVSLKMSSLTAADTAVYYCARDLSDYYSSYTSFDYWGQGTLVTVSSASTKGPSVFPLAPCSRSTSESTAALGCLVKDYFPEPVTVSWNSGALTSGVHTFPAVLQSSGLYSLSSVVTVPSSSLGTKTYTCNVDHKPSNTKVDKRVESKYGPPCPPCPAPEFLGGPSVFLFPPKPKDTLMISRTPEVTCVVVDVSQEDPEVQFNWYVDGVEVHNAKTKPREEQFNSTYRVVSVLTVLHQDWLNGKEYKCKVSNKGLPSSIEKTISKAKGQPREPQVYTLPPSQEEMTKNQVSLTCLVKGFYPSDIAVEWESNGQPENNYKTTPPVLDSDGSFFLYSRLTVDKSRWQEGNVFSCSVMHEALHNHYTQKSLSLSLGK
light: DIQMTQSPSSLSASVGDRVTITCRASEGISNDLAWYQQKPGKAPKLLIYAASRLQSGVPSRFSGSGSGTDYTLTISSMQPEDFATYYCQQSYKYPLTFGQGTKLEIKRTVAAPSVFIFPPSDEQLKSGTASVVCLLNNFYPREAKVQWKVDNALQSGNSQESVTEQDSKDSTYSLSSTLTLSKADYEKHKVYACEVTHQGLSSPVTKSFNRGEC
B3: PI-3048-AB (antibody, human IgG4 S228P, kappa)
heavy: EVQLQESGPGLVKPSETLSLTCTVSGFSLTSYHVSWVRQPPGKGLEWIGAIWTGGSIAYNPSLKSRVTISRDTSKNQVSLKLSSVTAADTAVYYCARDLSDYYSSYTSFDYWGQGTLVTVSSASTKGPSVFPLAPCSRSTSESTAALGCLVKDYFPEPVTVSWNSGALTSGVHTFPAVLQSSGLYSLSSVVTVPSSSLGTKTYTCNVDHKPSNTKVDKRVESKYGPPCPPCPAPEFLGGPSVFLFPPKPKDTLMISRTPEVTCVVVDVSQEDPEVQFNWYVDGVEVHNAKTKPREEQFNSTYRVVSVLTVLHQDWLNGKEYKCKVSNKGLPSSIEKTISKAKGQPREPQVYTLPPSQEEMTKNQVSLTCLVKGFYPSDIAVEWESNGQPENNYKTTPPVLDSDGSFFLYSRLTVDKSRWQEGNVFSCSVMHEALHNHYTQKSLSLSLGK
light: B2 light with S56D, M78L
B4: PI-3047-AB (antibody, human IgG4 S228P, kappa)
heavy: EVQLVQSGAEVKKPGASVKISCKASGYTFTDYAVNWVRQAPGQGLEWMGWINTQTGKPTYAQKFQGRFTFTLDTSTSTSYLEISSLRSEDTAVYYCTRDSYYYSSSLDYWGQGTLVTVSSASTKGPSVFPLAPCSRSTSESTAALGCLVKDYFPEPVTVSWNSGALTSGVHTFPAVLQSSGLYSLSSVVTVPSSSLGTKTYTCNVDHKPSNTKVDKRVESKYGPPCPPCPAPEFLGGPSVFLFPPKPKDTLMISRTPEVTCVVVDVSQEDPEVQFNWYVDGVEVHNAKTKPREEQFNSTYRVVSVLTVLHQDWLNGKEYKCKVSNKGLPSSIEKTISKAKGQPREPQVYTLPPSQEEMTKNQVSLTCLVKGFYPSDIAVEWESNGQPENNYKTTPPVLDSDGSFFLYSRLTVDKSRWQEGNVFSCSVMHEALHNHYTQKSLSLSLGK
light: B2 light with E27A, S56D, Y71F, L96W
notes: Humanized PI-HX-3011, hIgG4
B5: PI-HX-3001 (antibody, rat IgG2a, V domains shown)
VH: EVQLVESGGGLVKPGASLKLSCVASGFTFSDYWMNWVRQTPGKTMEWIGDIKDDGSYTNYTPSLKNRFTISRDNAKSTLYLQMNNVRSEDTGTYYCTSGGVFDYWGQGVMVTVSS
VL: EIVLTQSPTTMAASPGEMVTITCRASSSVNYMHWFQQKSGTSPKPWIYDTSKLASGVPDRFSGSGSGTSYSLTISSMEAEDAASYYCLQRSTFPPTFGAGTKLELK
notes: Rat IgG2a hybridoma antibody; also called PI-3006 (name of the recombinant form)
B6: PI-HX-3017 (antibody, rat IgG1, V domains shown)
VH: EVQLVESGGGLVQPGRSLKFSCSASGFTFSAYSMAWVRQAPKTGLEWVATIIYDGSSTYYRDSVKGRFTISRDNAKNTLYLQMDSLRSEDTATYYCARLGYSGHYFDYWGQGVMVTVSS
VL: DTVLTQSPALAVSLGQRVTISCQASESVSSSLHSYLHWYQQKPGQQPKLLIYRASNLESGVPARFSGSGSGTDFTLNIDPVEADDIATYFCQQSWNDPRTFGGGTKLELK
notes: Rat IgG1 hybridoma antibody; also called PI-3009 (name of the recombinant form)
B7: PI-3020-AB (antibody, human IgG4, kappa)
heavy: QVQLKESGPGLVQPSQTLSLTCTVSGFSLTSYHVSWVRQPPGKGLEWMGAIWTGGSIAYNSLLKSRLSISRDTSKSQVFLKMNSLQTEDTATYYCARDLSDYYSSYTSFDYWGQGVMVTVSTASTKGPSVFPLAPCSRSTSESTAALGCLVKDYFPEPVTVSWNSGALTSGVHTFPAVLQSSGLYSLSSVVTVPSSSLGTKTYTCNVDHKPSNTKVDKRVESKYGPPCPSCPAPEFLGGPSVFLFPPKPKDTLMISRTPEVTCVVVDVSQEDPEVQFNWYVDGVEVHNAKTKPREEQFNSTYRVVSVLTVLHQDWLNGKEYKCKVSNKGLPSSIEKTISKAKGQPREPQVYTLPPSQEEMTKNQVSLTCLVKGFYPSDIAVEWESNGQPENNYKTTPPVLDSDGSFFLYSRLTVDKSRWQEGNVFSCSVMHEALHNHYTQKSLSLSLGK
light: DIQMTQSPASLSTSLGETVSIECLASEGISNDLAWYQQKSGKSPQLLIYAASRLQDGVPSRFSGSGSGTRYSLKISGMQPEDEADYFCQQSYKYPLTFGSGTKLEIKRTVAAPSVFIFPPSDEQLKSGTASVVCLLNNFYPREAKVQWKVDNALQSGNSQESVTEQDSKDSTYSLSSTLTLSKADYEKHKVYACEVTHQGLSSPVTKSFNRGEC

How the values were obtained:
hVar3 (RG3036) [1] = biological target: T5, hVar3 (RG3036) (human, UniProt Q9UEW3 147-520); experiment: ELISA on recombinant hVar3 protein, A450
T5 construct: Human MARCO His-CLD-SRCR with Q452D, Y472S and K473S (already in the entry); also called recombinant human SRCR MARCO hVar3 protein

[2] = biological target: T1, Cynomolgus MARCO, full length, on cells; experiment: flow cytometry, cells overexpressing cyno MARCO; cyn (second of hu/cyn)
[3] = biological target: T2, N-terminally polyhistidine tagged human …; experiment: Biacore (SPR), binding affinity to human MARCO
Summary of the method: (§1)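 On a CM4 chip, anti-mouse Fc mAb was amine-coupled to a 4500 RU target and used to capture the antibodies. Their binding kinetics and affinity for N-terminally His-tagged human MARCO extracellular domain (147-520) were then measured by multi-cycle surface plasmon resonance on a Biacore T200. This was done at 25° C in 10 mM HEPES pH 7.4, 150 mM NaCl, 3 mM EDTA, 0.05% surfactant P20, with 0.625–10 nM injections, 90 s association and 600 s dissociation, and fitting in BIAevaluation 3.1.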

[4] = biological target: T3, Human Macrophage Receptor with …; experiment: flow cytometry, cells overexpressing human MARCO; hu (first of hu/cyn)
[5] = biological target: T4, recombinant cynomolgus MARCO protein; experiment: Biacore (SPR), recombinant cyno MARCO
[6] = biological target: T2, N-terminally polyhistidine tagged human …; experiment: Biacore (SPR), recombinant human MARCO
Summary of the method: as §1

[7] = biological target: T3, Human Macrophage Receptor with …; experiment: flow cytometry, 293T HuMARCO cells
Summary of the method: (§2)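 HEK293T cells expressing human or cynomolgus MARCO were tested for antibody binding by flow cytometry. At 100,000 cells/well, Zombie NIR-stained cells received an 8-point three-fold dilution of antibody from 100 nM in D-PBS/2% FBS/2 mM EDTA for 1 hr on ice, then APC goat anti-mouse IgG for 30 min on ice. Geometric mean fluorescence intensities were analysed in FlowJo and Prism.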

[8] = biological target: T1, Cynomolgus MARCO, full length, on cells; experiment: flow cytometry, 293T CyMARCO cells
Summary of the method: as §2

hVar3 (RG3036) [9] = biological target: T5, hVar3 (RG3036); experiment: ELISA on hVar3

| Binder | EC50 [2] [nM] | Kd [3] [nM] | EC50 [4] [nM] | Kd [5] [nM] | Kd [6] [nM] | koff [6] [s⁻¹] | further results |
| --- | --- | --- | --- | --- | --- | --- | --- |
| B1 |  |  |  |  |  |  | binding result (hVar3 (RG3036) [1]): binds |
| B2 | 1.07 | 0.78 | 0.821 | 1.1 | 0.78 | 0.000371 |  |
| B3 | 2.39 | 1.05 | 0.721 | 1.81 | 1.05 | 0.000386 |  |
| B4 | 1.39 | 0.72 | 0.796 | 0.79 | 0.72 | 0.000337 |  |
| B5 |  |  |  |  |  |  | binding result [7]: no binding; binding result [8]: no binding |
| B6 |  |  |  |  |  |  | binding result [7]: no binding; binding result [8]: no binding |
| B7 |  |  |  |  |  |  | binding result (hVar3 (RG3036) [9]): no binding |

Source: patent publication US20220153832A1 (PIONYR IMMUNOTHERAPEUTICS, published 2022)
